Assay results published in patent publication US20050154189A1 (MAXYGEN, published 2005).

Target: T1, Soluble CD28-Ig (human, UniProt P10747 19-152, biotin-conjugated (NHS-biotin) in the labelled-ligand FACS assays)
T1 construct: extracellular domain; Bought from R&D Systems; also called sCD28-Ig; CD28-Ig Fc; not shown: Fc portion of human IgG1
Experiment: two-colour FACS profile on transfected cells; score of preference for CD28-Ig over CTLA-4-Ig vs WT hB7-1

Binder	Binding Score
Round 2 CD28B2-8 (ligand) ITPKSVTKRVKETVMLSCDYNTSTEELTSLRIYWQKDSKMVLAILPGKVQVWPEYKNRTITDMNDNPRIVILALRLSDKGTYTCVIQKPVLKGAYKLEHLASVRLMIRADFPVPTINDLGNPSPNIRRLICSTSGGFPRPHLYWLENGEELNATNTTVSQDPGTELYMISSELDFNVTNNHSIVCLIKYGELSVSQIFPWSKPKQEPPIDQLPFWVIIPVSGALVLTAVVLYCLACRHVARWKRTRRNEETVGTERLSPIYLGSAQSSG	1
Round 2 CD28BP-2 (ligand) ITPKSVTKRVKETVMLSCDYSTSTEELTSLRIYWQKDSKMVLAILPGKVQVWPEYKNRTITDMNDNPRIVILALRLSDSGTYTCVIQKPVLKGAYKLEHLASVRLMIRADFPVPTINDLGNPSPNIRRLICSTSGGFPRPHLYWLENGEELNATNTTLSQDPETKLYMISSELDFNVTNNHSIVCLIKYGELSVSQIFPWSKPKQEPPIDQLPFWVIIPVSGALVLTAVVLYRPACRHVARWKRTRRNEETVGTERLSPIYLGSAQSSG	2
Round 2 CD28BP-4 (ligand) ITPKSVTKRVKETVMLSCDYNTSTEELTSLRIYWQKDSKMVLAILPGKVQVWPEYKNRTITDMNDNPRIVILALRLSDSGTYTCVIQKPVLKGAYKLEHLASVRLMIRADFPVPTINDLGNPSPNIRRLICSTSGGFPRPHLCWLENGEELNATNTTVSQDPGTELYMISSELDFNVTNNHSIVCLIKYGELSVSQIFPWSKPKQEPPIDQLPFWVIIPVSGALVLTAVVLYCLACRHVARWKRTRRNEETVGTERLSPIYLGSAQSSG	2
Round 2 CD28BP-5 (ligand) ITPKSVTKRVKETVMLSCDYSTSTEELTSLRIYWQKDSKMVLAILPGKVQVWPEYKNRTITDMNDNPRIVILALRLSDKGTYTCVVQKPVLKGAYKLEHLTSVRLMIRADFPVPTINDLGNPSPNIRRLICSTSGGFPRPHLYWLENGEELNATNTTVSQDPGTELYMISSELDFNVTNNHSIVCLIKYGELSVSQIFPWSKPKQEPPIDQLPFWVIIPVSGALVLTAVVLYCLACRHVARWKRTRRNEETVGTERLSPIYLGSAQSSG	2
Round 2 CD28BP-13 (ligand) ITPKSVTKRVKETVMLSCDYSTSTEELTSLRIYWQKDSKMVLAILPGKVQVWPEYKNRTITDMNDNPRIVILALRLSDSGTYTCVIQKPVLKGAYKLEHLASVRLMIRADFPVPTINDLGNPSPNIRRLICSTSGGFPEPRLAWMEDGEELNAVNTTVDQDLDTELYSVSSELDFNVTNNHSIVCLIKYGELSVSQIFPWSKPKQEPPIDQLPFWVIIPVSGALVLTAVVLYCLACRHVARWKRTRRNEETVGTERLSPIYLGSAQSSG	2
Round 2 CD28BP-16 (ligand) ITPKSVTKRVKETVMLSCDYNTSTEELTSLRIYWQKDSKMVLAILPGKVQVWPEYKNRTITDMNDNPRIVILALRLSDSGTYTCVIQKPVLKGAYKLEHLTSVRLMIRADFPVPTINDLGNPSPNIRRLICSTSGGFPRPHLYWLENGEELNATNTTVSQDPGTELYMISSELDFNVTNNHSIVCLIKYGELSVSQIFPWSKPKQEPPIDQLPFWVIIPVSGALVLAAVVLYCLACRHVARWKRTRRNEETVGTERLSPIYLGSAQSSG	2
Round 2 CD28C6-1 (ligand) ITPKSVTKRVKETVMLSCDYSTSTEELTSLRIYWQKDSKMVLAILPGKVQVWPEYKNRTITDMNDNPRIVILALRLSDSGTYTCVIQKPVLKGAYKLEHLASVRLMIRADFPVPTINDLGNPSPNIRRLICSTSGGFPRPHLYWLENGEELNATNTTVSQDPGTELYMISSELDFNVTNNHSIVCLIKYGELSVSQIFPWSKPKQEPPIDQLPFWVIIPVSGALVLTAVVLYCLACRHGARWKRTRRNEETVGTERLSPIYLGSAQSSG	1
Round 2 CD28C8-6 (ligand) ITPKSVTKRVKETVMLSCDYNTSTEELTSLRIYWQKDSKMVLAILPGKVQVWPEYKNRTITDMNDNPRIVILALRLSDSGTYTCVIQKPVLKGAYKLEHLASVRLMIRADFPVPTINDLGNPSPNIRRLICSTSGGFPRPHLYWLENGEELNATNTTVSQDPGTELYMISSELGFNVTNNHSIVCLIKYGELSVSQIFPWSKPKQEPPIDQLPFWVIIPVSGALVLTAVVLYCLACRHVARWKRTRRNEETVGTERLSPIYLGSAQSSG	2
Round 2 CD28C11-5 (ligand) ITPKSVTKRVKETVMLSCDYNTSTEELTSLRIYWQKDSKMVLAILPGKVQVWPEYKNRTITDMNDNPRIVILALRLSDSGTYTCVIQKPVLKGAYKLEHLTSVRLMIRADFPVPTINDLGNPSPNIRRLICSTSGGFPRPHLYWLENGEELNATNTTVSQDPGTELYMISSELDFNVTNNHSIACLIKYGELSVSQIFPWSKPKQEPPIDQLPFWVIIPVSGALVLTAVVLYCLACRHVARWKRTRRNEETVGTERLSPIYLGSAQSSG	2
Round 2 CD28D2-9 (ligand) ITPKSVTKRVKETVMLSCDYNTSTEELTSLRIYWQKDSKMVLAILPGKVQVWPEYKNRTITDMNDNPRIVILALRLSDSGTYTCVIQKPVLKGAYKLEHLTSVRLMIRADFPVPTINDLGNPSPNIRRLICSTSGGFPRPHLYWLENGEELNATNTTLSQDPETELYMISSELDFNVTNNHSIVCLIKYGELSVSQIFPWSKPKQEPPIDQLPFWVIIPVSGALVLTAVVLYCLACRHVARWKRTRRNEETVGTERLSPIYLGSAQSSG	1
Round 2 CD28D8-9 (ligand) ITPKSVTKRVKETVMLSCDYSTSTEELTSLRIYWQKDSKMVLAILPGKVQVWPEYKNRTITDMNDNPRIVILALRLSDSGTYTCVIQKPVLKGAYKLEHLTSVRLMIRADFPVPTINDLGNPSPNIRRLICSTSGGFPRPHLYWLENGEELNATNTTVSQDPGTELYMISSELDFNVTNNHSIVCLIKYGELSVSQIFPWSKPKQEPPIDQLPFWVIIPVSGALVLTAVVLYCLACRHVARWKRTRRNEETVGTERLSPIYLGSAQSSG	1
Round 2 CD28E2-4 (ligand) ITPKSVTKRVKETVMLSCDYSTSTEELTSLRIYWQKDSKMVLAILPGKVQVWPEYKNRTITDMNDNPRIVILALRLSDKGTYTCVIQKPVLKGAYKLEHLASVRLMIRADFPVPTINDLGNPSPNIRRLICSTSGGFPRPHLYWLENGEELNATNTTVSQDPGTELYMISSELDFNVTNNHSIVCLIKYGELSVSQIFPWSKPKQEPPIDQLPFWVIIPVSGALVLTAVVLYCLACRHVARWKRTRRNEETVGTERLSPIYLGSAQSSG	1
Round 2 CD28E5-2 (ligand) ITPKSVTKRVKETVMLSCDYNTSTEELTSLRIYWQKDSKMVLAILPGKVQVWPEYKNRTITDMNDNPRIVILALRLSDSGTYTCVIQKPDLKGAYKLEHLASVRLMIRADFPVPTINDLGNPSPNIRRLICSTSGGFPRPHLYWLENGEELNATNTTLSQDPETKLYMISSELDFNVTNNRSIVCLIKYGELSVSQIFPWSKPKQEPPIDQLPFWVIIPVSGALVLTAVVLYCLACRHVARWKRTRRNEETVGTERLSPIYLGSAQSSG	0
Round 2 CD28E9-6 (ligand) ITPKSVTKRVKETVMLSCDYNTSTEELTSLRIYWQKDSKMVLAILPGKVQVWPEYKNRTITDMNDNPRIVILALRLSDKGTYTCVIQKPDLKGAYKLEHLASVRLMIRADFPVPTINDLGNPSPNIRRLICSTSGGFPRPHLYWLENGEELNATNTTVSQDPGTELYMISSELDFNVTNNHSIVCLIKYGELSVSQIFPWSKPKQEPPIDQLPFWVIIPVSGALVLTAVVLYCLACRHVARWKRTRRNEETVGTERLSPIYLGSAQSSG	0
Round 2 CD28E10-6 (ligand) ITPKSVTKRVKETVMLSCDYNTSTEELTSLRIYWQKDSKMVLAILPGKVQVWPEYKNRTITDMNDNPRIVILALRLSDSGTYTCVIQKPVLKGAYKLEHLASVRLMIRADFPVPTINDLGNPSPNIRRLICSTSGGFPRPHLYWLENGEELNATNTTLSQDPETELYMISSELDFNVTNNHSIVCLIKYGELSVSQIFPWSKPKQEPPIDQLPFWVIIPVSGALVLTAVVLYCLACRHVARWKRTRRNEETVGTERLSPIYLGSAQSSG	1
Round 2 CD28F3-6 (ligand) ITPKSVTKRVKETVMLSCDYSTSTEELTSLRIYWQKDSKMVLAILPGKVQVWPEYKNRTITDMNDNPRIVILALRLSDSGTYTCVIQKPDLKGAYKLEHLTSVRLMIRADFPVPTINDLGNPSPNIRRLICSTSGGFPRPHLYWLENGEELNATNTTLSQDPETKLYMISSELDFNVTNNHSIVCLIKYGELSVSQIFPWSKPKQEPPIDQLPFWVIIPVSGALVLTAVVLYCLACRHVARWKRTRRNEETVGTERLSPIYLGSAQSSG	0
Round 2 CD28F7-2 (ligand) ITPKSVTKRVKETVMLSCDYSTSTEELTSLRIYWQKDSKMVLAILPGKVQVWPEYKNRTITDMNDNPRIVILALRLSDSGTYTCVIQKPVLKGAYKLEHLASVRLMIRADFPVPTINDLGNPSPNIRRLICSTSGGFPEPRLAWMEDGEELNAVNTTVDQDLDTELYSVSSELDFNVTNNHSIVCLIKYGELSVSQIFPWSKPKQEPPIDQLPFWVIIPVSGALVLTAVVLYCLACRHVARWKRTRRNEETVGTERLSPIYLGSAQSSG	2
Round 2 CD28F8-4 (ligand) ITPKSVTKRVKETVMLSCDYSTSTEELTSLRIYWQKDSKMVLAILPGKVQVWPEYKNRTITDMNDNPRIVILALRLSDSGTYTCVIQKPVLKGAYKLEHLASVRLMIRADFPVPTINDLGNPSPNIRRLICSTSGGFPRPHLYWLENGEELNATNTTLSQDPETKLYMISSELDFNVTNNHSIVCLIKYGELSVSQIFPWSKPKQEPPIDQLPFWVIIPVSGALVLTAVVLYCLACRHVARWKRTRRNEETVGTERLSPIYLGSAQSSG	1
Round 2 CD28G2-8 (ligand) ITPKSVTKRVKETVMLSCDYNTSTEELTSLRIYWQKDSKMVLAILPGKVQVWPEYKNRTITDMNDNPRIVILALRLSDSGTYTCVIQKPVLKGAYKLEHLASVRLMIRADFPVPSINDLGNPSPNIRRLICSTSGGFPRPHLYWLENGEELNATNTTVSQDPGTELYMISSELDFNVTNNHSIVCLIKYGELSVSQIFPWSKPKQEPPIDQLPFWVIIPVSGALVLTAVVLYCLACRHVARWKRTRRNEETVGTERLSPIYLGSAQSSG	1
